Key:
[1] = target: TRPA1-GFP truncated of 5 ankyrin repeats (Δ5-GFP); assay: FRET or BRET; FLIM-FRET in fixed serum-starved HEK 293T cells co-expressing FGFR2-RFP with Δ5-GFP or Δ10-GFP; shift of GFP lifetime against empty GFP vector
[2] = target: T1, purified full-length human TRPA1 (human, UniProt O75762 1-1119, biotinylated with EDC-based carboxyl-biotinylation reagent (streptavidin pull-down); labeled with Alexafluor 488 (MST); unlabelled in the GST pull-down); assay: pull-down; GST constructs on glutathione-sepharose beads incubated with purified full-length TRPA1; western blot; conditions: both partners purified
T1 construct: human TRPA1, full length; kept in PBS with 0.014% F-14; also called hTRPA1; full-length purified TRPA1; source: Pichia pastoris, purified (Ni-NTA)
T1 sequence (O75762 whole entry): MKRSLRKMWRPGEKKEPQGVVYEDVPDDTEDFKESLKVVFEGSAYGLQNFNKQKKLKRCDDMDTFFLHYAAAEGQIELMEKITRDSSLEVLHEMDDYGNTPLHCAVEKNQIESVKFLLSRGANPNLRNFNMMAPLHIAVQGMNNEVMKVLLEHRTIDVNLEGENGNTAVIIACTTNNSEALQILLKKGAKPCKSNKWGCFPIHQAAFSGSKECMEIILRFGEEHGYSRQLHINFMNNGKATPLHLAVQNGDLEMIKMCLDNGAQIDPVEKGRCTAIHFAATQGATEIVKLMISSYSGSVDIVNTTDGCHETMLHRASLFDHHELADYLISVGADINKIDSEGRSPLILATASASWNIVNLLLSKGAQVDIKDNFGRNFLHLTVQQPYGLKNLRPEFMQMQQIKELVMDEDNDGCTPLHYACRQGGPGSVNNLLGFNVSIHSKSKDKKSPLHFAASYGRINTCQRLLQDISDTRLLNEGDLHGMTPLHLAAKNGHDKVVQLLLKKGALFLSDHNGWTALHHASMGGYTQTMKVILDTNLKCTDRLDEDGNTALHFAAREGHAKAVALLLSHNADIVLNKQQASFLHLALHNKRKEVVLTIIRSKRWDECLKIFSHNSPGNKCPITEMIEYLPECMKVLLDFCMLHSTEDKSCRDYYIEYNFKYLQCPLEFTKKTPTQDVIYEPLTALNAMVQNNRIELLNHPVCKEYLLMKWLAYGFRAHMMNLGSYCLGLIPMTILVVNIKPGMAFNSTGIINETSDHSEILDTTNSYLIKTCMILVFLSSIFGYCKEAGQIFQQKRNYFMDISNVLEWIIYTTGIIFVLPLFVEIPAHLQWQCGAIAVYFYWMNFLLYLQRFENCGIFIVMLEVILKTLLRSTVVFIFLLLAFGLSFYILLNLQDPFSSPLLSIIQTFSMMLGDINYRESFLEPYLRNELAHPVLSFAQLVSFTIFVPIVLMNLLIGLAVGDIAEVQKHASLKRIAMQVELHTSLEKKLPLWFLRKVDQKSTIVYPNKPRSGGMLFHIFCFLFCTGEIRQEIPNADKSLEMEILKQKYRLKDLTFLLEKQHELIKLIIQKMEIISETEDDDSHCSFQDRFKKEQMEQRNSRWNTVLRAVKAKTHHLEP

Chain of TRPA1-GFP truncated of 5 ankyrin repeats (Δ5-GFP) (O75762 whole entry, stated change not applied, the tested form may be a part): as the sequence (O75762 whole entry) above
Chain of FGFR2-RFP (P21802 22-821): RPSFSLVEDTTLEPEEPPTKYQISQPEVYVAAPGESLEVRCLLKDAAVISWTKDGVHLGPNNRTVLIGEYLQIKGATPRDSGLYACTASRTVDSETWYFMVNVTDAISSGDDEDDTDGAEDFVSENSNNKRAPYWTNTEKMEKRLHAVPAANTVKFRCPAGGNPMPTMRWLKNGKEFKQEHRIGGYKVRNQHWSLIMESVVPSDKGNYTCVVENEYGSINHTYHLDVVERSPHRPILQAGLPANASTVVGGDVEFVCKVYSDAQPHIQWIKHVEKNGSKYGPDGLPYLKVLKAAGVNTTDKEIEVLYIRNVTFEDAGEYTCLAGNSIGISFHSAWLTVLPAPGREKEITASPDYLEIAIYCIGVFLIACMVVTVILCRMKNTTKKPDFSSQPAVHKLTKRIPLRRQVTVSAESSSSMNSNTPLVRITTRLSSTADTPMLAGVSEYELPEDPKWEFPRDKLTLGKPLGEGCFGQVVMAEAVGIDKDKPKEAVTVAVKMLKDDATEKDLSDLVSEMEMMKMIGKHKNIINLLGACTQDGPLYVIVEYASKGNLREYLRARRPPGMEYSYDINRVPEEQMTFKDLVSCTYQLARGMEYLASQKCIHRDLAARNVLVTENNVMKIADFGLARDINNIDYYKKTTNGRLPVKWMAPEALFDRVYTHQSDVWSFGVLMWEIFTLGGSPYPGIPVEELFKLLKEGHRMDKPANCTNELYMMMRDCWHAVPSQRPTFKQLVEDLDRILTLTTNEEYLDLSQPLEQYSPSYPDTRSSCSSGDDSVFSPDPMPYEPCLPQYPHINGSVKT

shift of GFP fluorescence lifetime (FLIM-FRET) [1] [ns]	binding result [2]	Molecule
0.09	–	FGFR2-RFP (from UniProt P21802 22-821) (receptor)
–	binds	GST fusion of FGFR2 residues 764-821 with P804A (C4) (domain or fragment, UniProt P21802 764-821, looked up, FGFR2, last 58 amino acids, residues 764-821, P804A) TTNEEYLDLSQPLEQYSPSYPDTRSSCSSGDDSVFSPDPMAYEPCLPQYPHINGSVKT
–	binds	GST fusion of the last 58 amino acids of FGFR2 (residues 764-821), wild-type construct (C) (domain or fragment, UniProt P21802 764-821, looked up, FGFR2, last 58 amino acids, residues 764-821; PGEX vector) TTNEEYLDLSQPLEQYSPSYPDTRSSCSSGDDSVFSPDPMPYEPCLPQYPHINGSVKT

From paper PMC5643494, “TRPA1–FGFR2 binding event is a regulatory oncogenic driver modulated by miRNA-142-3p” (Nature Communications, 2017)
